± gives the standard deviation of the averaged measurements.
Assay: total protein half-life in vivo (active degradation + dilution); higher = more stable protein
[1] = wild type E. coli NCM3722, growth: C-lim chemostat, doubling time 12 h
[2] = wild type E. coli NCM3722, growth: N-lim chemostat, doubling time 12 h
[3] = E. coli NCM3722 delta-clpP delta-lon delta-hslV, growth: N-lim chemostat, doubling time 6 h
[4] = E. coli NCM3722 delta-lon, growth: N-lim chemostat, doubling time 6 h
[5] = wild type E. coli NCM3722, growth: C-lim chemostat, doubling time 3 h
[6] = wild type E. coli NCM3722, growth: C-lim chemostat, doubling time 6 h
[7] = wild type E. coli NCM3722, growth: P-lim chemostat, doubling time 6 h
[8] = wild type E. coli NCM3722, growth: P-lim chemostat, doubling time 12 h
[9] = E. coli NCM3722 delta-clpP, growth: N-lim chemostat, doubling time 6 h
[10] = E. coli NCM3722 delta-hslV, growth: N-lim chemostat, doubling time 6 h
[11] = E. coli NCM3722 delta-smpB, growth: N-lim chemostat, doubling time 6 h
[12] = wild type E. coli NCM3722, growth: N-lim chemostat, doubling time 6 h

| Sequence | total protein half-life in vivo [1] [h] | total protein half-life in vivo [2] [h] | total protein half-life in vivo [3] [h] | total protein half-life in vivo [4] [h] | total protein half-life in vivo [5] [h] | total protein half-life in vivo [6] [h] | total protein half-life in vivo [7] [h] | total protein half-life in vivo [8] [h] | total protein half-life in vivo [9] [h] | total protein half-life in vivo [10] [h] | total protein half-life in vivo [11] [h] | total protein half-life in vivo [12] [h] |
| --- | --- | --- | --- | --- | --- | --- | --- | --- | --- | --- | --- | --- |
| MNNSRLFRLSRIVIALTAASGMMVNTANAKEEAKAATQYTQQVNQNYAKSLPFSDRQDFDDAQRGFIAPLLDEGILRDANGKVYYRADDYKFDINAAAPETVNPSLWRQSQINGISGLFKVTDKMYQVRGQDISNITFVEGEKGIIVIDPLVTPPAAKAALDLYFQHRPQKPIVAVIYTHSHTDHYGGVKGIISEADVKSGKVQVIAPAGFMDEAISENVLAGNIMSRRALYSYGLLLPHNAQGNVGNGLGVTLATGDPSIIAPTKTIVRTGEKMIIDGLEFDFLMTPGSEAPAEMHFYIPALKALCTAENATHTLHNFYTLRGAKTRDTSKWTEYLNETLDMWGNDAEVLFMPHTWPVWGNKHINDYIGKYRDTIKYIHDQTLHLANQGYTMNEIGDMIKLPPALANNWASRGYYGSVSHNARAVYNFYLGYYDGNPANLHPYGQVEMGKRYVQALGGSARVINLAQEANKQGDYRWSAELLKQVIAANPGDQVAKNLQANNFEQLGYQAESATWRGFYLTGAKELREGVHKFSHGTTGSPDTIRGMSVEMLFDFMAVRLDSAKAAGKNISLNFNMSNGDNLNLTLNDSVLNYRKTLQPQADASFYISREDLHAVLTGQAKMADLVKAKKAKIIGNGAKLEEIIACLDNFDLWVNIVTPN | 11.5 | 11.3 |  |  |  |  |  |  |  |  |  |  |
| MLSRHINYFLAVAEHGSFTRAASALHVSQPALSQQIRQLEESLGVPLFDRSGRTIRLTDAGEVWRQYASRALQELGAGKRAIHDVADLTRGSLRIAVTPTFTSYFIGPLMADFYARYPSITLQLQEMSQEKIEDMLCRDELDVGIAFAPVHSPELEAIPLLTESLALVVAQHHPLAVHEQVALSRLHDEKLVLLSAEFATREQIDHYCEKAGLHPQVVIEANSISAVLELIRRTSLSTLLPAAIATQHDGLKAISLAPPLLERTAVLLRRKNSWQTAAAKAFLHMALDKCAVVGGNESR | 6.21 | 12.6 | 5.07 ± 0.31 | 6.84 | 2.02 ± 0.18 | 4.75 ± 0.2 | 5.54 | 5.16 ± 2 |  |  |  |  |
| MPGLKITLLQQPLVWMDGPANLRHFDRQLEGITGRDVIVLPEMFTSGFAMEAAASSLAQDDVVNWMTAKAQQCNALIAGSVALQTESGSVNRFLLVEPGGTVHFYDKRHLFRMADEHLHYKAGNARVIVEWRGWRILPLVCYDLRFPVWSRNLNDYDLALYVANWPAPRSLHWQALLTARAIENQAYVAGCNRVGSDGNGCHYRGDSRVINPQGEIIATADAHQATRIDAELSMAALREYREKFPAWQDADEFRLW | 11.7 ± 4.7 | 6.49 | 4.72 ± 0.34 | 4.4 ± 0.72 | 2.74 ± 0.14 | 5.22 ± 0.33 | 5.74 ± 0.18 | 10.8 ± 0.35 | 4.042 ± 0.0079 | 4.46 ± 0.63 | 3.9 ± 0.082 | 4.42 ± 0.34 |
| MNIVITGGTGLIGRHLIPRLLELGHQITVVTRNPQKASSVLGPRVTLWQGLADQSNLNGVDAVINLAGEPIADKRWTHEQKERLCQSRWNITQKLVDLINASDTPPSVLISGSATGYYGDLGEVVVTEEEPPHNEFTHKLCARWEEIACRAQSDKTRVCLLRTGVVLAPDGGILGKMLPPFRLGLGGPIGSGRQYLAWIHIDDMVNGILWLLDNELRGPFNMVSPYPVRNEQFAHALGHALHRPAILRVPATAIRLLMGESSVLVLGGQRALPKRLEEAGFAFRWYDLEEALADVVR | 11.09 ± 0.052 |  | 7.07 ± 0.37 | 5.86 ± 0.6 | 3.25 ± 0.15 | 5.86 ± 0.16 | 5.931 ± 0.026 | 12.38 ± 0.057 | 6.1 ± 0.14 | 6.36 ± 0.6 | 5.71 ± 0.17 | 5.76 ± 0.032 |
| MNSIFTEENLLAFTTAARFGSFSKAAEELGLTTSAISYTIKRMETGLDVVLFTRSTRSIELTESGRYFFRKATDLLNDFYAIKRRIDTISQGIEARVRICINQLLYTPKHTARLLQVLKKQFPTCQITVTTEVYNGVWDAIINNQANIAIGAPDTLLDGGGIDYTEIGAIRWAFAIAPDHPLAFVPEPIAESQLRLYPNIMVEDTAHTINKKVGWLLHGQESILVPDFNTKCQCQILGEGIGFLPDYMVREAMTQSLLVTRQIHNPRQDSRMLLATQHSATGQVTQWIKKQFAPNGILTGIYQDLLHREN |  |  | 5.9 |  |  |  |  |  |  |  |  |  |
| MSAQKPGLHPRNRHHSRYDLATLCQVNPELRQFLTLTPAGEQSVDFANPLAVKALNKALLAHFYAVANWDIPDGFLCPPVPGRADYIHHLADLLAEASGTIPANASILDIGVGANCIYPLIGVHEYGWRFTGSETSSQALSSAQAIISSNPGLNRAIRLRRQKESGAIFNGIIHKNEQYDATLCNPPFHDSAAAARAGSERKRRNLGLNKDDALNFGGQQQELWCEGGEVTFIKKMIEESKGFAKQVMWFTSLVSRGENLPPLYRALTDVGAVKVVKKEMAQGQKQSRFIAWTFMNDEQRRRFVNRQR | 13.2 | 7.46 ± 0.98 | 5.5 ± 0.76 | 5.31 ± 0.52 | 2.98 ± 0.11 | 4.83 ± 0.83 | 5.28 ± 0.23 | 10.5 ± 0.17 | 4.08 ± 0.18 | 5.27 ± 1.1 | 4.11 ± 0.72 | 4.81 ± 0.35 |
| MSPCKLLPFCVALALTGCSLAPDYQRPAMPVPQQFSLSQNGLVNAADNYQNAGWRTFFVDNQVKTLISEALVNNRDLRMATLKVQEARAQYRLTDADRYPQLNGEGSGSWSGNLKGNTATTREFSTGLNASFDLDFFGRLKNMSEAERQNYLATEEAQRAVHILLVSNVAQSYFNQQLAYAQLQIAEETLRNYQQSYAFVEKQLLTGSSNVLALEQARGVIESTRSDIAKRQGELAQANNALQLLLGSYGKLPQAQTVNSDSLQSVKLPAGLSSQILLQRPDIMEAEHALMAANANIGAARAAFFPSISLTSGISTASSDLSSLFNASSGMWNFIPKIEIPIFNAGRNQANLDIAEIRQQQSVVNYEQKIQNAFKEVADALALRQSLNDQISAQQRYLASLQITLQRARALYQHGAVSYLEVLDAERSLFATRQTLLDLNYARQVNEISLYTALGGG | > 16 | 12.47 ± 0.09 | 6.75 | 5.11 ± 0.78 |  | 7.18 | 6.29 ± 0.17 | 13.07 ± 0.062 |  |  | 5.15 ± 2.9 | 6.34 ± 0.14 |
| MLILISPAKTLDYQSPLTTTRYTLPELLDNSQQLIHEARKLTPPQISTLMRISDKLAGINAARFHDWQPDFTPANARQAILAFKGDVYTGLQAETFSEDDFDFAQQHLRMLSGLYGVLRPLDLMQPYRLEMGIRLENARGKDLYQFWGDIITNKLNEALAAQGDNVVINLASDEYFKSVKPKKLNAEIIKPVFLDEKNGKFKIISFYAKKARGLMSRFIIENRLTKPEQLTGFNSEGYFFDEDSSSNGELVFKRYEQR [P0A8I3] | 6.32 ± 0.39 | 3.4738 ± 0.0021 | 2.9 ± 0.42 | 3.07 ± 0.18 | 2.66 ± 0.069 | 3.57 ± 0.5 | 3.39 ± 0.057 | 6.11 ± 0.75 | 2.57 ± 0.31 | 2.665 ± 0.025 | 2.63 ± 0.37 | 2.53 ± 0.26 |
